The supplement of paper PMC12764529
± gives the half width of the 95% confidence interval.

Legend:
[1] = folding stability dG unfold from chymotrypsin proteolysis; higher = more stable
Experimental: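 Folding stability of de novo designed mini-proteins (<80 aa, no Cys; designed by TrROS, TrMRF, ProteinMPNN and the joint model) was measured by cDNA display proteolysis with trypsin and chymotrypsin. Each protease was used at 11 concentrations in a threefold dilution series plus a no-protease condition. K50 was inferred by Bayesian fitting of sequencing counts, and dG unfold was derived against a sequence-predicted unfolded-state K50 (Tsuboyama et al. method). Sequences shown include variable-length N-terminal GS-type padding (SAGGSAGG...) inside a display construct carrying a PA tag. Rows were kept only if the AF2 dimer inter-PAE was >15, to exclude likely homo-oligomers.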

[2] = folding stability dG unfold (combined trypsin and chymotrypsin); higher = more stable
Procedure, shortened: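 Bayesian fitting of sequencing counts gave K50 for each design. Unfolding free energy followed by setting this against a sequence-predicted unfolded-state K50 and a shared folded-state K50, either per protease or with trypsin and chymotrypsin combined. The designs, under 80 residues and lacking cysteine, were digested in a PA-tagged cDNA display format at 11 threefold-diluted protease concentrations and without protease, and only those with AlphaFold2 dimer inter-PAE above 15 were kept.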

Sequence | folding stability dG unfold [1] | folding stability dG unfold [2]
SAGGSAGGSDKIRKALKELGYPYEIDNIDVNVTKNGNPEIEIKYSPGMPPQDQKRIKRAVIDLSAGGSAGGS [r12_352_TrROS] | -0.14 ± 0.065 kcal/mol | -0.469 ± 0.15 kcal/mol
SAGGSAMSQEEIENKPIEEIAKAILENFPGNTKVEHEFTFKDGSKLRIVVELPEDGEPKIEAEPIGSAGGSA [r15_857_TrMRF] | -0.0162 ± 0.39 kcal/mol | -0.452 ± 0.56 kcal/mol
SAGGSAGGSAGMKDNLVVTRTYTLPDDTVLVTRATFDSNPELVTVDVTEVPLSDVAPDAVSAGGSAGGSAGG [r11_493_TrMRF] | 0.514 ± 0.11 kcal/mol | -0.0312 ± 0.14 kcal/mol
SAGGSAGGSAGGSSMLTTRPLPGGRTLLRTTLPDGTILVTRYDAAGEPVLETLPPSTPLLSAGGSAGGSAGG [r7_215_JUSTAS] | 0.102 ± 0.27 kcal/mol | < -1 kcal/mol
SAGGSAGGSAGGGMTTTYTTETIEAPDGTVVIKKTTTYDYGNGSLTKPTIYNPDGTPIGSAGGSAGGSAGGS [r10_1056_JUSTAS] | 0.452 ± 0.14 kcal/mol | -0.188 ± 0.12 kcal/mol
SAGRRKVEIPIPFDDPGQAMSADELADELRELGLKPGHEPKVEPHPDGYMRVKFEVPGPEVTIHIPMWDSAG [r5_144_TrROS] | 0.747 ± 0.16 kcal/mol | 0.183 ± 0.098 kcal/mol
SAGGSAGGSAGMVTEESLEIEPGKGLIVRTVTDRRESGIVTETEKTPVSEAEREAIRKALSAGGSAGGSAGG [r11_47_JUSTAS] | 0.0861 ± 0.056 kcal/mol | -0.201 ± 0.11 kcal/mol
SKPITADEIAKHFPGIKDVEPTPNKKRLDFDNPNGHKPTIEVSPDGTIMIEHQNPDNGQKQEQEIPIDDLSA [r9_427_TrROS] | 0.596 ± 0.056 kcal/mol | 0.0598 ± 0.26 kcal/mol
SAGGSAGGSAGGGPPVERVTTETILRPDGTTTTTRKTTVVPPTDTVTTTTTTLTTTPVTSAGGSAGGSAGGS [r10_1139_JUSTAS] | 0.328 ± 0.067 kcal/mol | 0.0441 ± 0.18 kcal/mol
SAGGSAGGAPVYVTTDTRERADPNGSTVRTSLVRDPNGPATYRVTETVPPDGSVASTTTAVPGASAGGSAGG [r6_839_JUSTAS] | -0.532 ± 0.23 kcal/mol | < -1 kcal/mol
SAGDISPSDPVTVRVEVEKDPNSKSTLVRVDEETPTGRRLERRIPADGPVVVTEREPASGATRVTVEPASAG [r5_55_JUSTAS] | 0.00901 ± 0.071 kcal/mol | -0.563 ± 0.11 kcal/mol
SAGGSAGGSAGGSSTITLDPANPTVVTDPATGVPTTGVSLAELEKLGMKPAGPDAYVVLSAGGSAGGSAGGS [r4_306_JUSTAS] | 0.289 ± 0.18 kcal/mol | < -1 kcal/mol
SAGMVIELPNATITIETVPDPSSSNKVYRVTVTAHLPDGSRPVVVLTFPENVPIEEILKEAIKAAEELLSAG [r5_704_JUSTAS] | 5.93 ± 0.14 kcal/mol | > 6 kcal/mol
SAGGSAGGSAGGRIRLRTELLVRREDGSLSRFRETAVFEVEARPRPVPAPRAYRDANGRLVSAGGSAGGSAG [r3_252_TrMRF] | 0.264 ± 0.075 kcal/mol | -0.558 ± 0.13 kcal/mol
SAGGSAGGSDKDVKIKVDPERTPDGNYYYRIEIENGKEINIHMPPENMTPEDAKDFVKDIIKKSAGGSAGGS [r12_218_TrROS] | -0.44 ± 0.39 kcal/mol | < -1 kcal/mol
SAGGSAMSLEELKKKKVKVKVKEIEVPKGAKIPDGKTVKEGEKILVVDGKVYLPNGKLIAEVEVEESAGGSA [r15_12_TrROS_Hall] | -0.621 ± 0.22 kcal/mol | -0.629 ± 0.47 kcal/mol
SAGGISVEIYPPNGKKVELEGDTIPELMDKFPPGGNYVIKIEQPHVNPGNGKKQPMEMEFRVPPDDFSAGGS [r16_806_TrROS] | -0.202 ± 0.23 kcal/mol | -0.697 ± 0.33 kcal/mol
SAGGSAGGSAGGSKVPPGAKITVERHDGGYRTVEIRPPNGKPVEIMMPEDDADEIADQISAGGSAGGSAGGS [r4_16_TrROS] | -1.26 ± 0.82 kcal/mol | < -1 kcal/mol
SAGGSAGGVEELAKKLNIEVTGNEVTITLKKKKVTVKKLKAPPLKVKKYVDKKTKKIVKTEVELSAGGSAGG [r6_981_TrROS_Hall] | 0.9 ± 0.28 kcal/mol | 0.431 ± 0.29 kcal/mol
SGMDVFVASDPGPSYLRAEARLPGGESRVLTSGPPEEARALVERLAAEEDPAMAVRRVEEVPPGELPPELSA [r9_137_JUSTAS] | -0.38 ± 0.18 kcal/mol | < -1 kcal/mol
SAGMPADTFIELNITITVPSEEYEADPAAVKAAADAAIAAAKAAGLPVDAATFTFERVPPVDPNNPRVGSAG [r5_979_JUSTAS] | -0.605 ± 0.2 kcal/mol | < -1 kcal/mol
SAGGSAGGSMNVKKVESEKDTGDGSTLTTNTVELPSNIIIVEPVLTPPSGNPQTTTKILPKGLSAGGSAGGS [r12_407_JUSTAS] | -0.157 ± 0.12 kcal/mol | -0.5 ± 0.18 kcal/mol
SAGGSAGGKEVKVTLEYDEETGTLTLTVETPDGYVFKLEITFEKDEDGNLKVTIKLEVIPLEDLSAGGSAGG [r6_537_TrROS_Hall] | 4.45 ± 0.21 kcal/mol | 4.39 ± 0.61 kcal/mol
SAGGSAGGSPNQDFKVKVKIKEFNPGNGHIRIDVEVEGDNPQVQDFAKGIAEGFGFPVEVEPISAGGSAGGS [r20_157_TrROS] | 0.34 ± 0.038 kcal/mol | -0.0925 ± 0.14 kcal/mol

Sequence | folding stability dG unfold [1] | folding stability dG unfold [2]
SAGGSAGGSAGGQPLLARPNDEPIVEVEISETTTLLPNGTVVTTYSVPKKGILTTVTLVSAGGSAGGSAGGS [r10_160_JUSTAS] | -0.703 ± 0.29 kcal/mol | < -1 kcal/mol
SIIIPPKESAEEVLNEIKELLPPGRKYKITVFNPENGRMHEADFDPKKGNIEVEPHPFPNGPPFLMIERKSA [r9_1059_TrROS] | -0.387 ± 0.63 kcal/mol | -0.42 ± 0.49 kcal/mol
SAGGSAGGSAGQPKPLPGGGEVKVEVYPPNNGKKKKFEIPPNEPDWIKELAKPGYSVHIESAGGSAGGSAGG [r11_1006_TrROS] | 0.0183 ± 0.089 kcal/mol | -0.677 ± 0.43 kcal/mol
SAGGSAGGSAGVRIPPGYLVRIKFPGNGEREIPIDTPEIEIPGIENVTIEVYPLKKGEPISAGGSAGGSAGG [r11_43_TrROS] | 0.553 ± 0.19 kcal/mol | 0.167 ± 0.2 kcal/mol
SAGGSAGGSAGGSKTKTISFPMPWDDIPELAEELKDKGPVTIEHQDPDGNPREFTIPPDSAGGSAGGSAGGS [r4_341_TrROS] | 0.484 ± 0.13 kcal/mol | 0.0258 ± 0.19 kcal/mol
SAGGSSRTISIPVSPSLSPEEVAELIKKEVKKMGEDKEVKVLSVDPSGRIDVLVGDEPITVDASLPSAGGSA [r2_102_JUSTAS] | 0.623 ± 0.1 kcal/mol | 0.235 ± 0.2 kcal/mol
SAGGSAGGSAGMETRLIAVLEDGEAVFEDGGTLITVPADEDVADIPDGGGLGTIYIPKDGSAGGSAGGSAGG [r11_647_TrMRF] | 0.53 ± 0.036 kcal/mol | -0.0625 ± 0.17 kcal/mol
SAGGSAGGSAMPLGVTTSTSTSLLPSNSRLVTETITTPGTTSTTTTLLTPPPGEVLETTTTSSAGGSAGGSA [r18_459_JUSTAS] | 0.997 ± 0.027 kcal/mol | 0.526 ± 0.09 kcal/mol
SAGGSAGGSAGGSPFWRIKIENPGNGKEITVMVPPDDIDKAKEEAEQEGLKKIEIEPVPSAGGSAGGSAGGS [r4_102_TrROS] | -0.0872 ± 0.3 kcal/mol | -0.993 ± 0.7 kcal/mol
SAGGSAGGSASLIVISPPGAPRTIPLEGLVEKGIPEREAAELLEKELGIEINLSEPGVIRAKSAGGSAGGSA [r18_7_JUSTAS] | 0.249 ± 0.044 kcal/mol | -0.186 ± 0.12 kcal/mol
SAGGMTTTVTVTEDPATGTLTVPITIPRLDAEGNPTTEVLTVTLPASPEAEAAIAALAAALGIPAAASAGGS [r8_381_JUSTAS] | 0.943 ± 0.067 kcal/mol | 0.369 ± 0.1 kcal/mol
SAGGSAEIEPVSSEVDPNSDRTVTTNRIPGSGKTRTVTYDSSNPGVTTVTTYAPGGKPLSTTTLPTSAGGSA [r15_974_JUSTAS] | -0.474 ± 0.28 kcal/mol | < -1 kcal/mol
SAGSAVVRDFDFEVPPGYGVLDVTVTEGPGPPVWEGTVTFQAGGAPETLTVTIPVDPATGARSVAMTAGSAG [r5_136_JUSTAS] | 0.267 ± 0.13 kcal/mol | -0.235 ± 0.25 kcal/mol
SAGGAGQRVVLSSDKSLEDLEKLREENPDVSIEVTEINKLEPVKPENGGLEEVPSEIVAELTPGERRSAGGS [r8_172_JUSTAS] | 0.401 ± 0.051 kcal/mol | -0.0394 ± 0.076 kcal/mol
SAGGSAGGSAGGGRVLRLADGKWRLVELPDGSVVLVPENVPVLDPEAKEPVLVAPVLPLDSAGGSAGGSAGG [r7_968_TrMRF] | 0.938 ± 0.073 kcal/mol | 0.223 ± 0.06 kcal/mol
SAGGSAGGSAGGSTVTVTSEEEAQEAREALAAERAAAEPGAEPPEAFPVEVEVVPPELRSAGGSAGGSAGGS [r4_498_JUSTAS] | 0.633 ± 0.047 kcal/mol | 0.0161 ± 0.22 kcal/mol
SAGGSAGGSAGWNIEPKPEPERDPDGNPQPRMEIKIRVPPPTAEQAQEWAKENGLPVTVYSAGGSAGGSAGG [r17_114_TrROS] | -0.0462 ± 0.17 kcal/mol | < -1 kcal/mol
SAGGSAGGSAMLTLRFELPDGSERELRLPGVTPEEAAALAAELARREGVARVEVYPPGVERSAGGSAGGSAG [r3_160_JUSTAS] | 0.532 ± 0.26 kcal/mol | -0.823 ± 0.44 kcal/mol
SAGGSAGGSIEINPNGNFKIRFRGGNRPQTHTIPIKPGETLDTIKDTIRKHMGPNFPEVEIERSAGGSAGGS [r12_300_TrROS] | 0.0855 ± 0.11 kcal/mol | -0.152 ± 0.13 kcal/mol
SMTIKELLKAHPGQPVEDLAKRIMDEMNANFPNGMPIKINLEYDPGGIKVDVEMWNNDKPQTDEFTIRPDSA [r9_805_TrROS] | 0.327 ± 0.091 kcal/mol | -0.000922 ± 0.15 kcal/mol
SGMTTPVAEIDNTDGKPEKVKEWIKKTIPKTPPVTVTRTLASGAPSTWTIDPNTGKVTESVPGGHVTVAASA [r9_853_JUSTAS] | -1.07 ± 0.7 kcal/mol | < -1 kcal/mol
SITISPDKVYTLKNVRVGDYEVDGLVAVAGPDGTVYVPADVRPVVVPPPAPPVGLDPVDGGVYDITDPSVSA [r9_603_TrMRF] | -0.965 ± 0.61 kcal/mol | < -1 kcal/mol
SAGGMTLDQLKENIKSVEVYPHPDGGYRMRVQIPQPNPDGKPKPREFNIPMPPNDPNMSADNVIDQILSAGG [r13_319_TrROS] | -0.353 ± 0.27 kcal/mol | < -1 kcal/mol
